According to patent US8697369B2, “Method for screening a test substance for activating a receptor associated with FGF 21 activity” (National Institute of Advanced Industrial Science and …, priority 2007, dated 2014):

B1: FGF21: fibroblast growth factor 21; mouse-derived protein used in Examples 1-7 and 10-13 (protein)
chain: AYPIPDSSPLLQFGGQVRQRYLYTDDDQDTEAHLEIREDGTVVGAAHRSPESLLELKALKPGVIQILGVKASRFLCQQPDGALYGSPHFDPEACSFRELLLEDGYNVYQSEAHGLPLRLPQKDSPNQDATSWGPVRFLPMPGLLHEPQDQAGFLPPEPPDVGSSDPLSMVEPLQGRSPSYAS

How the values were obtained:
[1] = molecular target: T1, humanized FGFR1c (hR1c)-expressing BaF3 cells (Homo sapiens, UniProt P11362); test: DNA synthesis in humanized FGFR1c-expressing BaF3 cells; format: cell-based; conditions: humanized FGFR1c only; 10 μg/ml heparin
T1 construct: expressed in transfected cells; host or cells: BaF3 (mouse pro-B) cells; pSRalpha vector
Source text: (§1) In Examples 4, 5, 6, and 7, it was shown that FGF21 reacts with FGFR1c in the presence of betaKlotho. FGFR1c, betaKlotho, FGF21, and the like, which were used in an actual experimental system, were all derived from mice used as typical mammalian models. With regard to these molecules, the homology between a human and a mouse at the amino acid sequence level is extremely high (80% in FGF21, 78% in betaKlotho, and 98% in FGFR1). As a result, naturally, there are no problems regarding the compatibility of the human with the mouse, and thus it is clear that the same results as those from a murine molecule will be obtained even using a humanized molecule. In the present example, as a precautionary measure, an experimental system using a humanized molecule was constructed to confirm such respect, and an experiment was carried out. Specifically, the humanized cDNA of FGFR1c and that of betaKlotho were prepared from a commercially available human RNA sample (Takara Bio Inc.) by PCR. FGFR1c was introduced into an expression vector having an SRalpha promoter (pSRalpha), and betaKlotho was introduced into an expression vector having a CMV promoter (pcDNA3.1; Invitrogen). […] In the presence of heparin, humanized FGF21 was added in various types of concentrations to FGFR1c-expressing cells or FGFR1c/betaKlotho-co-expressing cells, and the amount of DNA synthesized was then measured.

[2] = molecular target: T2, humanized FGFR1c/humanized betaKlotho (hβKlotho)-expressing cells (Homo sapiens, UniProt P11362+Q86Z14); test: DNA synthesis in humanized FGFR1c/humanized betaKlotho-expressing BaF3 cells; format: cell-based; conditions: humanized FGFR1c and humanized betaKlotho; 10 μg/ml heparin
T2 construct: expressed in transfected cells; host or cells: BaF3 (mouse pro-B) cells; pSRalpha (FGFR1c), pcDNA3.1 (betaKlotho)
Source text: as §1

[3] = molecular target: T3, betaKlotho (Mus musculus, UniProt Q99N32); test: Co-precipitation of FGF21 with soluble betaKlotho protein (anti-V5 beads, immunoblotting); format: binding; conditions: presence or absence of heparin
T3 construct: a V5 tag and a His tag were added to the C-terminus of the extracellular domain of betaKlotho; made in house
T3 sequence (Q99N32 1-992): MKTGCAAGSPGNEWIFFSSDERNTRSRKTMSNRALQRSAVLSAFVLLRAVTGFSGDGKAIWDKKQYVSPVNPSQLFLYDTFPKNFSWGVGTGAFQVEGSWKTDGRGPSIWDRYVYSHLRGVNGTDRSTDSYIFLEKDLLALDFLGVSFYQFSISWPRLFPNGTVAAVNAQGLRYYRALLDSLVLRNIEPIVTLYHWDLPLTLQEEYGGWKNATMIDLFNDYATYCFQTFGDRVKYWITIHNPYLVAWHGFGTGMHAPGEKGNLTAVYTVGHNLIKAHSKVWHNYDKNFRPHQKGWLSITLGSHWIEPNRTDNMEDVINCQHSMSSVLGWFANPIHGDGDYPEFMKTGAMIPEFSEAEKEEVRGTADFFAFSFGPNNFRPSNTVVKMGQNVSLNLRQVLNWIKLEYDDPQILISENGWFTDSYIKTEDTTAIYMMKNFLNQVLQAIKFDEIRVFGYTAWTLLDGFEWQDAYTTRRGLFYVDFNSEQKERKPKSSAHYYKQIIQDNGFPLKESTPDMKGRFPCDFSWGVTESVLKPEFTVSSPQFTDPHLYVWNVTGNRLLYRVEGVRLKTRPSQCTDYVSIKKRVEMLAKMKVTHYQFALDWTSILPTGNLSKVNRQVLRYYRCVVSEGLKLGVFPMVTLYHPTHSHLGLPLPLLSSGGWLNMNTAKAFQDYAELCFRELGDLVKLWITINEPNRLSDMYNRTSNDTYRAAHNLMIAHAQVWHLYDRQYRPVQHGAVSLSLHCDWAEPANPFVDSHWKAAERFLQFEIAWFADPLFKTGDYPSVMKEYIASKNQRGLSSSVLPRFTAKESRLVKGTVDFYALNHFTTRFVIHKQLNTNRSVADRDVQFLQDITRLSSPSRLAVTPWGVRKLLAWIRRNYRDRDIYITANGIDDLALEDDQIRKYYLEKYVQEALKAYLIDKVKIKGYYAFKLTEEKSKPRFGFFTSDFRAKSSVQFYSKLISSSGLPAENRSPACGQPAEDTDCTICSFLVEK
Experimental: In the present example, the formation of a complex between betaKlotho and an FGF receptor or FGF21 was examined in a biochemical manner. Specifically, a V5 tag and a His tag were added to the C-terminus of the extracellular domain of betaKlotho in a tandem manner to prepare a soluble protein. Thereafter, the soluble betaKlotho protein was incubated with FGF21 in a test tube in the presence or absence of heparin, and betaKlotho was then precipitated using anti-V5 tag antibody-immobilized beads. Whether or not FGF21 bound to betaKlotho and was co-precipitated therewith was analyzed by an immunoblotting method.

[4] = system: control 3T3-L1 fibroblasts; test: GLUT1 mRNA level in control 3T3-L1 fibroblasts (empty vector); format: cell-based; conditions: various concentrations, 6 hours
Experimental: (§2) A betaKlotho expression vector or an empty vector used as a control, into which betaKlotho cDNA had not been inserted, were introduced into 3T3-L1 fibroblasts, and FGF21 was then added in various types of concentrations to a culture solution of the 3T3-L1 fibroblasts. The obtained mixture was cultured for 6 hours. Thereafter, RNA was extracted, and the mRNA level of GLUT1 was then measured.

[5] = system: 3T3-L1 fibroblasts forced to express betaKlotho; test: GLUT1 mRNA level in 3T3-L1 fibroblasts forced to express betaKlotho; format: cell-based; conditions: betaKlotho expression vector; various concentrations; 6 hours
Experimental: as §2

T1 sequence (P11362 22-822): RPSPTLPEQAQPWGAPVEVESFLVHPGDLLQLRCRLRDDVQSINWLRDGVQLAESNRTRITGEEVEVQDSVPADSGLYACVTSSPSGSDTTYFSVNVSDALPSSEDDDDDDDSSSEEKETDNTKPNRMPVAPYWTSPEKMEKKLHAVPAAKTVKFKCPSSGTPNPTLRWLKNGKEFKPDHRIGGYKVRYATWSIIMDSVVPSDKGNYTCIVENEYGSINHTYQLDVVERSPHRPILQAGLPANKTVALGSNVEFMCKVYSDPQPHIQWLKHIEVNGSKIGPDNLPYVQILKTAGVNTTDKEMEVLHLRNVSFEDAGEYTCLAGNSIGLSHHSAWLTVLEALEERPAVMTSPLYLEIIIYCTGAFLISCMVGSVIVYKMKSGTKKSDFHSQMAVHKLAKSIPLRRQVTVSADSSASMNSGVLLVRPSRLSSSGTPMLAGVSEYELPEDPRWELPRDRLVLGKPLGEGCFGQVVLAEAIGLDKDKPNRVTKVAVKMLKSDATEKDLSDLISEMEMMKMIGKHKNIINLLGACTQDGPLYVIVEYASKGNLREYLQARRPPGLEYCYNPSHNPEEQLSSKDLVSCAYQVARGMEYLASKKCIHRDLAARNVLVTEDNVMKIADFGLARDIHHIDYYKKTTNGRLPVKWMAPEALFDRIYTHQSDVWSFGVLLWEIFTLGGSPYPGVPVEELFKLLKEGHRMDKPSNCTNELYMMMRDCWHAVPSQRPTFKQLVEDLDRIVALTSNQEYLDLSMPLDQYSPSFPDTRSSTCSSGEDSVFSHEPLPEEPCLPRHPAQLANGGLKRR
T2 sequence (P11362 22-822): as above
T2 sequence (Q86Z14 whole entry): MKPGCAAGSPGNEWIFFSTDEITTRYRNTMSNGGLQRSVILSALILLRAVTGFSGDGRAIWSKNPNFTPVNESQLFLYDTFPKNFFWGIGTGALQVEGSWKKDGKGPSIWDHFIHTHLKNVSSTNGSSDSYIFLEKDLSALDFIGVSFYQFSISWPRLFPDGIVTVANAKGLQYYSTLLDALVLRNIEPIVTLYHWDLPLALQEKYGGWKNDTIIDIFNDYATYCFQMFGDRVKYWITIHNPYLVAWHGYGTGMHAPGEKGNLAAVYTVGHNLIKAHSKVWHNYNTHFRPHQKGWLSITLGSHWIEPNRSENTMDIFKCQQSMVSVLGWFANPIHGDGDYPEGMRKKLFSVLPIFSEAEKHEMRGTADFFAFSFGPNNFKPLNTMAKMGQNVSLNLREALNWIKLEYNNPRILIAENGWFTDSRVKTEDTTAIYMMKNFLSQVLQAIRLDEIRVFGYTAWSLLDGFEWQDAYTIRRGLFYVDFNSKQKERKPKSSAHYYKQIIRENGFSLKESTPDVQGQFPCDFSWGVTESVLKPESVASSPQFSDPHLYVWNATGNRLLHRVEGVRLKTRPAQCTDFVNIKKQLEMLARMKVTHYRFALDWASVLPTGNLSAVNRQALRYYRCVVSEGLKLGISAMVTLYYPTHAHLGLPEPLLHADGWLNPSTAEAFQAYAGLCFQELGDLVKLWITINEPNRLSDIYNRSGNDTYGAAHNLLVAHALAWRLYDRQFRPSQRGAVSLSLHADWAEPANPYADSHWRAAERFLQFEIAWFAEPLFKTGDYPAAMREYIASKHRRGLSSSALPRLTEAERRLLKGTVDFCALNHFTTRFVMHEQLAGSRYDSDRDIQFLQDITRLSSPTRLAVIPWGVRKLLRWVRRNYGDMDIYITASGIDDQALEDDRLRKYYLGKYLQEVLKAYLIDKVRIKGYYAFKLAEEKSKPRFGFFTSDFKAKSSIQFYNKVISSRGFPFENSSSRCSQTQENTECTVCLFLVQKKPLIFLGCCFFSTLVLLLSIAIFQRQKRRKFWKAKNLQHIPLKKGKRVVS

| Molecule | amount of DNA synthesized (thymidine incorporation) [1] | amount of DNA synthesized (thymidine incorporation) [2] | co-precipitation (binding) with soluble betaKlotho protein [3] | mRNA level of GLUT1 [4] | mRNA level of GLUT1 [5] |
| --- | --- | --- | --- | --- | --- |
| FGF1: conventional FGF used as a control | promoted the DNA synthesis | promoted the DNA synthesis |  |  |  |
| B1 |  |  | precipitated in the presence of betaKlotho | not observed | increased depending on the amount of FGF21 |
